Values quoted from earlier work as cited in PMC4303049.

Columns and labels:
[1] = target: PACS-2 FBR (Homo sapiens) (UniProt Q86VP3)
[2] = target: PACS-1 FBR (Homo sapiens) (UniProt Q6VY07)
PACS-1 FBR (Homo sapiens), sequence (Q6VY07 117-266): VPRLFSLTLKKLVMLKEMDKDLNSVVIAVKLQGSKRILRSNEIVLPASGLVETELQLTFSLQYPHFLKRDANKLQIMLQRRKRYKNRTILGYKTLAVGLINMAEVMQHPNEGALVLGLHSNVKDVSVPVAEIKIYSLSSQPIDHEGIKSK

PACS-2 FBR (Homo sapiens), sequence (Q86VP3 37-186): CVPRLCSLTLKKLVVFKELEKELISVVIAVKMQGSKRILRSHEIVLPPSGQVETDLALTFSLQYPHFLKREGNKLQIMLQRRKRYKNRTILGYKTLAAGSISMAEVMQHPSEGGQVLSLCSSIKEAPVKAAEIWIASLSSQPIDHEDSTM

- Kd [1]: 15.4 µM
- Kd [2]: 14.8 µM
Substance: Polycystin-2 phosphorylated acidic cluster (from UniProt Q13563)
